Test [1] deals with T1, ヒトFRβ(FRβ発現B300−19細胞) (human, UniProt P14207 17-230).
T1 construct: whole, on cells; also called 葉酸リセプターβ
Put plainly: Flow cytometry on B300-19 cells expressing FRβ, antibody at 1 μg/ml, APC anti-rat detection.

The next test deals with T2, ヒトFRα(FRα発現KB細胞) (human, UniProt P15328 25-234).
T2 construct: whole, on cells
Put plainly: Hybridoma screening on cells expressing FRβ and on KB cells expressing FRα.

The target of test [2] is T1, ヒトFRβ(FRβ発現B300−19細胞). In words: Flow cytometry on B300-19 cells expressing FRβ, in the presence of F(ab')2 No.5, APC-streptavidin detection. (In general: Flow cytometry measures light scatter and fluorescence of single cells or particles in a stream.)

T1 sequence (P14207 17-230): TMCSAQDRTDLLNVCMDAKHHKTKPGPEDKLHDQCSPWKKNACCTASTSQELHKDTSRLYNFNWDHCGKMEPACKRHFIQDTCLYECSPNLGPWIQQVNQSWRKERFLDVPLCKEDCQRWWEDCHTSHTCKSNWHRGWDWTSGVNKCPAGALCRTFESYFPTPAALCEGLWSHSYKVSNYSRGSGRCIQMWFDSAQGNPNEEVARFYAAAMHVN
T2 sequence (P15328 25-234): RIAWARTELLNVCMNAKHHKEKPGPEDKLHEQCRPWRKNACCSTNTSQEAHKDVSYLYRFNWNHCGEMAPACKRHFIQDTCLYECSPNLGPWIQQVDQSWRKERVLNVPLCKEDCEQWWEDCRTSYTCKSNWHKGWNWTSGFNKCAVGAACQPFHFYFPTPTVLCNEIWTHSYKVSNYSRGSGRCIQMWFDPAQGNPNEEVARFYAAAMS

B1: 抗ヒトFRラットモノクローナル抗体(クローン名:No.5) (antibody, V domains shown)
VH: QVQLKESGPGLVQPSQTLSLTCTVSGFSLTSNSVSWVRQPPGKGLEWMGAIWSGGSTDYNSALKSRLSISKDTSKSQVFLKMNSLQTEDTAIYFCTRYYGYTYFAYWGQGVMVTVSS
VL: DIQMTQSPASLSASLEEIVTITCQASQDIGNWLAWYQQKPGKSPQLLIYDAIRLADGVPSRFSGSRSGTQYSLKISRLQVEDIGDYYCQQGQSNPRTFGGGTKLELK
notes: Rat monoclonal antibody purified from hybridoma supernatant; the constant regions are not; also called 抗体No.5
With B1, the binding result with ヒトFRβ(FRβ発現B300−19細胞) [1] and with ヒトFRα(FRα発現KB細胞) was “binds” in each case.

B2: ビオチン化No.2抗体 (antibody, V domains shown)
VH: QVQLQQSGAELAKPGSSVKISCKASGYTFTTYYINWIKQTTGQGLDYIGYINTRSGGTNYNEKFKGKATLTVDKSSSTAFMQLSSLTPDDSAVYYCAREGIIRGAEVMDAWGQGASVTVSS
VL: DIQMTQTPSSMPASLGERVTISCRASQGISNYLNRYQQKPDGTIKLLIYYTSNLQSGVPSRFSGSGSGTDYSLTISSLEPEDFAMYYCQQYDSSPPTFGGGTKLELK
modifications: biotinylated with Sulfo-NHS-LC-Biotin; sites not stated
notes: also called 検出抗体; ビオチン化抗FRβ抗体
In the case of B2, the binding result with ヒトFRβ(FRβ発現B300−19細胞) [2] is “binds”.

B3: 抗ヒトFRβラットモノクローナル抗体(クローン名:No.2) (antibody, V domains shown)
VH: QVQLQQSGAELAKPGSSVKISCKASGYTFTTYYINWIKQTTGQGLDYIGYINTRSGGTNYNEKFKGKATLTVDKSSSTAFMQLSSLTPDDSAVYYCAREGIIRGAEVMDAWGQGASVTVSS
VL: DIQMTQTPSSMPASLGERVTISCRASQGISNYLNRYQQKPDGTIKLLIYYTSNLQSGVPSRFSGSGSGTDYSLTISSLEPEDFAMYYCQQYDSSPPTFGGGTKLELK
notes: Rat monoclonal antibody purified from hybridoma supernatant; the constant regions are not; also called 抗体No.2
With B3, the binding result with ヒトFRβ(FRβ発現B300−19細胞) [1] was “binds”.

These data come from patent publication JP2016161390A (dated 2016).
